How the values were obtained:
cAMP production = experiment: basal level cAMP production of MC-4 receptor mutant; assay type: cell-based; details: FIG. 2
Description: FIG. 2 is a graph showing the constitutive activity of a D146M MC-4 receptor mutant as assayed by measuring basal level cAMP production.
(§1) Briefly, HEK293 cells were cotransfected, as described above, with an expression vector encoding either the wild-type MC-4 receptor or the Asp146Met mutant MC-4 receptor and the reporter construct, SMS-Luc. As a negative control, cells were transfected with SMS-Luc and pcDNA1. Basal and ligand (αMHS) induced activity of the negative control, the wild-type MC-4 receptor, and the Asp146Met mutant MC-4 receptor were measured using the luciferase assay described above. […] Other constitutively active MC-4 receptors may be generated by this or any other approach and introduced as transgenics into animals of the invention

[1] = system: SMS-Luc reporter in HEK293 cells; experiment: SMS-Luc luciferase reporter assay of MC-4 receptors in HEK293 cells; assay type: cell-based
Description: as §1

[2] = target: Asn150Ala mutant rat mu opioid receptor (rat) (UniProt P33535); experiment: cell-based or functional assay
[3] = target: wild-type rat mu opioid receptor (rat) (UniProt P33535); experiment: cell-based or functional assay
[4] = system: SRE-Luc + Gq5i reporter in HEK293 cells; experiment: SRE-Luc/Gq5i luciferase reporter assay in transfected HEK293 cells; assay type: cell-based; details: for stimulation of basal level activity: Asn150Ala mutant versus wild-type receptor; for Ligand Induced Activity (Light Emission) / Basal Activity (Light Emission): HEK293 cells; for Ligand Induced Activity (Light Emission): ligand DAMGO; for Basal Activity (Light Emission): no ligand
Description: Constitutive activity of the Asn150Ala mutant rat mu opioid receptor was assessed using a luciferase assay. The rat mu opioid receptor is a Gαi coupled receptor. Therefore we chose to use the Gq5i reporter system, described in detail above (Broach and Thorner, supra), which switches the signaling pathway from Gαi to Gαq for reliable positive readout. HEK293 cells were transfected with the reporter construct SRE-Luc, an expression vector containing nucleic acid encoding Gq5i (Broach and Thorner, supra), and an expression vector containing nucleic acid encoding either the wild-type or the Asn150Ala mutant rat mu opioid receptor. Basal and ligand-stimulated luciferase activity was measured. The ligand used in this assay was [D-Ala^2-MePhe^4, Gly-ol^5]enkephalin] (DAMGO). As a negative control, HEK293 cells were transfected with pcDNA1 (empty vector DNA), SRE-Luc, and the expression vector containing nucleic acid encoding Gq5i (Broach and Thorner, supra).
The luciferase assay was carried out as follows. On day 1, HEK293 cells in a T75 flask were washed with 15 ml serum-free media (or PBS), trypsinized with 5 ml 0.05% trypsin-EDTA (Gibco #25300-062), incubated at 37° C. for 3 minutes at which time 6-7 ml complete HEK293 media (Gibco #12100-046) and 10% Fetal Bovine Serum (Intergen #1050-90) were added. Thereafter, cells were collected in 50 ml centrifuge tubes, pelleted at 800-900 rpm (RCF ˜275), and resuspend in 20 ml complete media. The cells were counted using a haemocytometer and diluted to 85,000 cells/ml in complete media. Using a repeat pipettor or cell plater, 100 μl of cells were added to each well of a Primaria 96-well plate (Falcon #353872). Cells were then incubated at 37° C., 5% CO2 until use at 48 hours.
On day 3, cells were transfected using LipofectAMINE™ according to the manufacturer's protocol (Gibco #18324-012, Rockville, Md.).
On day 4, cells were stimulated as follows. Ligands for the receptor, either DAMGO or a non-peptide ligand (e.g., naloxone or naltrexone), were diluted to a desired concentration in serum-free media containing 0.15 mM PMSF (or other protease inhibitor(s)). The transfection media was then completely removed from cells and 50-100 μl stimulation media (i.e., media containing candidate ligands or the corresponding ligand free solvent) was added to each well. The cells were incubated for the desired time (standard is overnight) at 37° C., 5% CO2, although the optimal stimulation time may vary depending on the particular receptor used. The optimal incubation time may be determined systematically by testing a range of incubation times and determining which one yields the highest level of stimulation. For concomitant assessment of two ligands (e.g., ligand induced inhibition of forskolin stimulated CRE activity) each stimulus is prepared at two times the desired final concentration and mixed in equal volumes prior to addition to cells.
On day 5, an assay for luciferase expression was carried out according to the manufacturer's instructions (Packard, Meridin, Conn.)

[5] = system: phospholipase C-mediated production of inositol phosphate in COS-7 cells; details: absence of agonist; cited from earlier work
[6] = system: SMS-Luc reporter in HEK293 cells; experiment: SMS-Luc luciferase reporter assay of CCK-BR receptors in HEK293 cells; assay type: cell-based; details: FIG. 3
Description: In addition to these studies, luciferase assays were performed to measure the constitutive activity of the Leu325Glu CCK-BR mutant. HEK293 cells were transfected (as described above) with SMS-Luc and an expression vector encoding any one of pcDNA1, wild-type CCK-BR, or Leu325Glu CCK-BR.

Asp146Met mutant MC-4 receptor: melanocortin-4 receptor with Asp at position 146 of the DRY motif replaced by Met
constitutive activity in cAMP assay (cAMP production): exhibited constitutive activity | basal level activity versus wild-type MC-4 receptor [1]: higher basal level activity than its wild-type counterpart

[D-Ala^2-MePhe^4, Gly-ol^5]enkephalin (peptide)
Ligand Induced Activity (Light Emission), SRE-Luc + Gq5i luciferase reporter in HEK293 cells (Light Emission) [2]: 87000 | Ligand Induced Activity (Light Emission), SRE-Luc + Gq5i luciferase reporter in HEK293 cells (Light Emission) [3]: 87500

B1: Asn150Ala rat mu opioid receptor: rat mu opioid receptor with Asn150Ala point mutation at position 150 of SEQ ID NO: 1; constitutively active (protein, listed as Rattus norvegicus)
chain: MDSSTGPGNTSDCSDPLAQASCSPAPGSWLNLSHVDGNQSDPCGLNRTGLGGNDSLCPQTGSPSMVTAITIMALYSIVCVVGLFGNFLVMYVIVRYTKMKTATNIYIFNLALADALATSTLPFQSVNYLMGTWPFGTILCKIVISIDYYAMFTSIFTLCTMSVDRYIAVCHPVKALDFRTPRNAKIVNVCNWILSSAIGLPVMFMATTKYRQGSIDCTLTFSHPTWYWENLLKICVFIFAFIMPILIITVCYGLMILRLKSVRMLSGSKEKDRNLRRITRMVLVVVAVFIVCWTPIHIYVIIKALITIPETTFQTVSWHFCIALGYTNSCLNPVLYAFLDENFKRCFREFCIPTSSTIEQQNSTRVRQNTREHPSTANTVDRTNHQLENLEAETAPLP
stimulation of basal level activity [4]: *6.5-fold stimulation of basal level activity. | stimulation of basal level activity ([4]; listed as Asn150Ala mutant mu opioid receptor): approximately 6.5 fold | Ligand Induced Activity (Light Emission) [4]: 86,996 | Basal Activity (Light Emission) [4]: *56,498

B2: wild-type rat mu opioid receptor: wild-type rat mu opioid receptor (SEQ ID NO: 1), Gαi coupled receptor, comparator (protein, listed as Rattus norvegicus)
chain: MDSSTGPGNTSDCSDPLAQASCSPAPGSWLNLSHVDGNQSDPCGLNRTGLGGNDSLCPQTGSPSMVTAITIMALYSIVCVVGLFGNFLVMYVIVRYTKMKTATNIYIFNLALADALATSTLPFQSVNYLMGTWPFGTILCKIVISIDYYNMFTSIFTLCTMSVDRYIAVCHPVKALDFRTPRNAKIVNVCNWILSSAIGLPVMFMATTKYRQGSIDCTLTFSHPTWYWENLLKICVFIFAFIMPILIITVCYGLMILRLKSVRMLSGSKEKDRNLRRITRMVLVVVAVFIVCWTPIHIYVIIKALITIPETTFQTVSWHFCIALGYTNSCLNPVLYAFLDENFKRCFREFCIPTSSTIEQQNSTRVRQNTREHPSTANTVDRTNHQLENLEAETAPLP
Ligand Induced Activity (Light Emission) [4]: 87,461 | Basal Activity (Light Emission) [4]: 8,436

B3: Leu325Glu CCK-BR mutant: human CCK-BR with point mutation Leu325Glu in the third intracellular loop; constitutively active (protein, UniProt P32239 1-447, looked up, variant L325E)
Gastrin/cholecystokinin type …: MELLKLNRSVQGTGPGPGASLCRPGAPLLNSSSVGNLSCEPPRIRGAGTRELELAIRITLYAVIFLMSVGGNMLIIVVLGLSRRLRTVTNAFLLSLAVSDLLLAVACMPFTLLPNLMGTFIFGTVICKAVSYLMGVSVSVSTLSLVAIALERYSAICRPLQARVWQTRSHAARVIVATWLLSGLLMVPYPVYTVVQPVGPRVLQCVHRWPSARVRQTWSVLLLLLLFFIPGVVMAVAYGLISRELYLGLRFDGDSDSDSQSRVRNQGGLPGAVHQNGRCRPETGAVGEDSDGCYVQLPRSRPALELTALTAPGPGSGSRPTQAKELAKKRVVRMLLVIVVLFFLCWLPVYSANTWRAFDGPGAHRALSGAPISFIHLLSYASACVNPLVYCFMHRRFRQACLETCARCCPRPPRARPRALPDEDPPTPSIASLSRLSYTTISTLGPG
agonist-independent constitutive activity (inositol phosphate production) [5]: triggers constitutive production of inositol phosphates to levels exceeding wild-type CCK-BR | basal level activity compared to wild-type CCK-BR [6]: increased basal level activity compared to the wild-type CCK-BR
